# In US20260049151A1 (SHENGHE CHINA BIOPHARMACEUTICAL, published 2026):
# Where two headings read alike, the source gives them in different places.
# T1: Human-TNFR2-His (human, UniProt P20333 23-257)
# T1 construct: Bought protein; also called human TNFR2 protein; TNFR2 protein; not shown: His tag
# T1 sequence (looked up): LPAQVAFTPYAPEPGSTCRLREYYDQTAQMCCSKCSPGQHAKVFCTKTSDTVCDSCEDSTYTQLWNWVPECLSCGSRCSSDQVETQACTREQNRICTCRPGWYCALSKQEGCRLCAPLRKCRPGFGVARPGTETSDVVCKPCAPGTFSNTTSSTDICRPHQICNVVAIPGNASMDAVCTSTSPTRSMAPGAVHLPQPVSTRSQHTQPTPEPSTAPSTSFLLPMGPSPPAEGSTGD
# B1: Positive control 2 (anti-TNFR2 VHH) (VHH)
# VHH: EVQLVESGGGLVQPGGSLRLSCAASGSRLDYYAVAWFRQAPGKEREEVSCITYSGGSTNYAESVKGRFTISRDNSKNTLYLQMNSLRAEDTAVYYCTTEPYGSSCPLSGYDTWGQGTLVTVSS
# B2: Positive control (anti-4-1BB antibody, human IgG1) (antibody, V domains shown)
# VH: QVQLQESGPGLVKPSETLSLTCTVSGSSLTSYGVHWVRQPPGKGLEGLGVIWPGGSTNYNSALMSRVTISKDNSKSQVSLKMSSLTAADTAVYYCARVTGTWYFDVWGQGTTVTVSS
# VL: DIQMTQSPSSLSASLGDRVTISCSASQGISNYLNWYQQKPDGTVKLLIYYTSTLHSGVPSRFSGSGSGTDYTLTISSLQPEDIATYYCQQYSKLPWTFGGGTKLEIK
# notes: also called control antibody
# Tests used:
# Human-TNFR2-His [1] = molecular target: T1, Human-TNFR2-His; experiment: ELISA: Human-TNFR2-His coated (0.1 ug/mL), antibody titrated, goat anti-human IgG Fc detection (Example 2)
# Experimental: (§1) Human-TNFR2-His (manufacturer: SINO, CAT: 10417-H08H, LOT: LC15NO0412) was diluted to 0.1 μg/mL with a coating solution (1×PBS, pH7.4), and coated in 96-well ELISA plate at 100 µL/well overnight at 4° C. The coating solution was poured off. Each well was washed with 1×PBST at 300 μL, washed 4 times with a plate washer, and patted dry on a flat paper. It was blocked with 3% skim milk powder at 300 μL/well, and incubated at 37° C. for 1 h. The blocking solution was poured off, washed 4 times with a plate washer, and patted dry on a flat paper. Negative control and positive control were set up. […] The positive control and antibody were diluted to 10 μg/mL with 3% skim milk powder as the starting concentration, and then diluted by 3-fold gradient (11 gradients in total), and a blank well was set up and only the diluent was added. It was incubated at 37° C. for 1 h at 100 μL/well. The liquid in the well was discarded, washed 4 times with a plate washer, and patted dry on a flat paper. Goat anti-human IgG Fc was diluted with 3% skim milk powder at 1:10000, and incubated at 37° C. for 1 h at 100 μL/well. It was washed 6 times with a plate washer, and patted dry on a flat paper. TMB color developing solution was added at 100 μL/well, and wrapped with aluminum foil. Color development was performed at 37° C. in the dark for 8 min. Termination solution 1M HCl was added to terminate the color development reaction at 100 μL/well. Readings were taken at 450 nm on an ELISA reader.
# Human-TNFR2-His [2] = molecular target: T1, Human-TNFR2-His; experiment: as above; remark: listed apart in the source
# Experimental: as §1
# Human-TNFR2-His [3] = molecular target: T1, Human-TNFR2-His; experiment: BLI, antibody on AHC sensor, 100 nM TNFR2-His in solution
# Experimental: The AHC sensor was soaked in 0.02% PBST (0.02% Tween 20, pH 7.4, 1×PBS) as a buffer for 600 s to remove the sucrose covering the sensor surface. The AHC sensor was equilibrated with 0.02% PBST (0.02% Tween 20, pH 7.4, 1×PBS) as a buffer for 60 s, the antibody in the sample plate was solidified for 300 s, and the secondary equilibration buffer was used for 180 s. 100 nM human-TNFR2-His (manufacturer: SINO, CAT: 10417-H08H, LOT: LC15NO0412) protein was bound to the antibody for 300 s and then dissociated for 600 s. After dissociation, 10 mM glycine (pH 2.0) was used as a regeneration buffer for 30 s. The sensor was regenerated with 10 mM glycine (pH 2.0).
# Human-TNFR2-His [4] = molecular target: T1, Human-TNFR2-His; experiment: ELISA: Human-TNFR2-His coated (0.1 ug/mL), antibody titrated, goat anti-human IgG Fc detection (Example 2); remark: listed apart in the source
# Experimental: as §1, with “Termination solution 1M HCl was added to terminate the color development reaction at 100 μL/well.” left out
# Human-TNFR2-His [5] = molecular target: T1, Human-TNFR2-His; experiment: as above; remark: listed apart in the source
# Human 4-1BB His [6] = molecular target: T2, Human 4-1BB His (human, UniProt Q07011 24-186); experiment: ELISA: Human 4-1BB His coated (0.2 ug/mL), antibody titrated, goat anti-human IgG Fc detection (Example 3)
# T2 construct: Bought protein; lots 198-2146F1-W6 and 2407c-214FF1-YC; also called human 4-1BB protein; 4-1BB protein; not shown: His tag
# Experimental: (§2) Human 4-1BB His (manufacturer: Acro, CAT: 41B-H5258, LOT: 198-2146F1-W6) was diluted to 0.2 μg/mL with a coating solution (1×PBS, pH7.4), and coated in 96-well ELISA plate at 100 μL/well overnight at 4° C. The coating solution was poured off. Each well was washed with 1×PBST at 300 μL, washed 4 times with a plate washer, and patted dry on a flat paper. It was blocked with 3% skim milk powder at 300 μL/well, and incubated at 37° C. for 1 h. The blocking solution was poured off, washed 4 times with a plate washer, and patted dry on a flat paper. Negative control and positive control were set up. […] The variable region of the antibody sequence of the positive control consists of SEQ ID NO: 15 and SEQ ID NO: 19, with the addition of the constant region of human IgG1 (SEQ ID NO: 46 and SEQ ID NO: 47). The positive control and antibody were diluted to 10 μg/mL with 3% skim milk powder as the starting concentration, and then diluted by 3-fold gradient (11 gradients in total), and a blank well was set up and only the diluent was added. It was incubated at 37° C. for 1 h at 100 μL/well. The liquid in the well was discarded, washed 4 times with a plate washer, and patted dry on a flat paper. Goat anti-human IgG Fc was diluted with 3% skim milk powder at 1:20000, and incubated at 37° C. for 1 h at 100 μL/well. It was washed 6 times with a plate washer, and patted dry on a flat paper. TMB color developing solution was added at 100 μL/well, and wrapped with aluminum foil. Color development was performed at 37° C. in the dark for 8 min. Termination solution 1M HCl was added to terminate the color development reaction at 100 μL/well. Readings were taken at 450 nm on an ELISA reader.
# Human 4-1BB His [7] = molecular target: T2, Human 4-1BB His; experiment: BLI, antibody on AHC sensor, 100 nM 4-1BB His in solution
# From the text: The variable region of the antibody sequence of the positive control consists of SEQ ID NO: 15 and SEQ ID NO: 19, with the addition of the constant region of human IgG1 (SEQ ID NO: 46 and SEQ ID NO: 47). The AHC sensor was soaked in 0.02% PBST (0.02% Tween 20, pH 7.4, 1× PBS) as a buffer for 600 s to remove the sucrose covering the sensor surface. The AHC sensor was equilibrated with 0.02% PBST (0.02% Tween 20, pH 7.4, 1× PBS) as a buffer for 60 s, the antibody in the sample plate was solidified for 300 s, and the secondary equilibration buffer was used for 180 s. 100 nM human 4-1BB His (manufacturer: Acro, CAT: 41B-H5258, LOT: 198-2146F1-W6) protein was bound to the antibody for 300 s and then dissociated for 600 s. After dissociation, 10 mM glycine (pH 2.0) was used as a regeneration buffer for 30 s. The sensor was regenerated with 10 mM glycine (pH 2.0).
# Human 4-1BB His [8] = molecular target: T2, Human 4-1BB His; experiment: ELISA: Human 4-1BB His coated (0.2 ug/mL), antibody titrated, goat anti-human IgG Fc detection (Example 3); remark: listed apart in the source
# Experimental: as §2
# Human 4-1BB His [9] = molecular target: T2, Human 4-1BB His; experiment: as above; remark: listed apart in the source
# Experimental: as §2
# Human 4-1BB His [10] = molecular target: T2, Human 4-1BB His; experiment: as above; remark: listed apart in the source
# Experimental: as §2, with “It was washed 6 times with a plate washer, and patted dry on a flat paper. TMB color developing solution was added at 100 μL/well, and wrapped with aluminum foil. Color development was performed at 37° C. in the dark for 8 min. Termination solution 1M HCl was added to terminate the color development reaction at 100 μL/well.” left out
# Human 4-1BB His [11] = molecular target: T2, Human 4-1BB His; experiment: as above; remark: listed apart in the source
# Experimental: as §2
# Human 4-1BB His [12] = molecular target: T2, Human 4-1BB His; experiment: as above; remark: listed apart in the source
# Experimental: as §2
# T2 sequence (Q07011 24-186 limits assumed): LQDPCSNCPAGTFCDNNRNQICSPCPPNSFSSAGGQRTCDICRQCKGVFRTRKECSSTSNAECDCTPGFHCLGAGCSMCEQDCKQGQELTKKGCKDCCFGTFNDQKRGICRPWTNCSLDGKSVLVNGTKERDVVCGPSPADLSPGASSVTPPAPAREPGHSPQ
Binder,EC50 (read off the curve) (Human-TNFR2-His [1]) [nM],EC50 (read off the curve) (Human-TNFR2-His [2]) [nM],Kd (Human-TNFR2-His [3]) [nM],koff (Human-TNFR2-His [3]) [s⁻¹],kon (Human-TNFR2-His [3]) [M⁻¹ s⁻¹],EC50 (read off the curve) (Human-TNFR2-His [4]) [nM],EC50 (read off the curve) (Human-TNFR2-His [5]) [nM],EC50 (read off the curve) (Human 4-1BB His [6]) [nM],Kd (Human 4-1BB His [7]) [nM],koff (Human 4-1BB His [7]) [s⁻¹],kon (Human 4-1BB His [7]) [M⁻¹ s⁻¹],EC50 (read off the curve) (Human 4-1BB His [8]) [nM],EC50 (read off the curve) (Human 4-1BB His [9]) [nM],EC50 (read off the curve) (Human 4-1BB His [10]) [nM],EC50 (read off the curve) (Human 4-1BB His [11]) [nM],EC50 (read off the curve) (Human 4-1BB His [12]) [nM]
B1,~0.04,0.04 to 0.05,1.61,0.000427,266000,0.1 to 0.2,~0.04,–,–,–,–,–,–,–,–,–
B2,–,–,–,–,–,–,–,~0.05,14.2,0.00553,391000,~0.1,~0.05,~0.07,~0.05,~0.05
